In data set [1] the test system is T1, C/C(=C\C(=O)O)C(=O)SCCNC(=O)CCNC(=O)[C@H](O)C(C)(C)COP(=O)(O)OP(=O)(O)OC[C@H]1O[C@@H](n2cnc3c(N)ncnc32)[C@H](O)[C@@H]1OP(=O)(O)O.
T1 construct: His-tagged, expressed in E. coli BL21(DE3), HisTrap purified (gel filtration for crystals); homodimer
The data set can be described thus: purified protein. The conditions noted are these: 200 mM HEPES pH 7.5, 400 µM NADPH, 400 nM enzyme, 30 °C, apparent KM. In kind it is biochemical, Clostridium kluyveri.

In data set [2] the test system is T2, CC(C)(COP(=O)(O)OP(=O)(O)OC[C@H]1O[C@@H](n2cnc3c(N)ncnc32)[C@H](O)[C@@H]1OP(=O)(O)O)[C@@H](O)C(=O)NCCC(=O)NCCSC(=O)CCC(=O)O.
T2 construct: His-tagged, expressed in E. coli BL21(DE3), HisTrap purified (gel filtration for crystals); homodimer
The data set can be described thus: purified protein. As to conditions: 200 mM HEPES pH 7.5, 400 µM NADPH, 400 nM enzyme, 30 °C, apparent KM. The data set is classed as biochemical, Clostridium kluyveri.

For data set [3], the target named is T3, CkSucD (Clostridium kluyveri, UniProt P38947).
T3 construct: gene sucD; His-tagged, expressed in E. coli BL21(DE3), HisTrap purified (gel filtration for crystals); homodimer
T3 sequence (P38947 1-453): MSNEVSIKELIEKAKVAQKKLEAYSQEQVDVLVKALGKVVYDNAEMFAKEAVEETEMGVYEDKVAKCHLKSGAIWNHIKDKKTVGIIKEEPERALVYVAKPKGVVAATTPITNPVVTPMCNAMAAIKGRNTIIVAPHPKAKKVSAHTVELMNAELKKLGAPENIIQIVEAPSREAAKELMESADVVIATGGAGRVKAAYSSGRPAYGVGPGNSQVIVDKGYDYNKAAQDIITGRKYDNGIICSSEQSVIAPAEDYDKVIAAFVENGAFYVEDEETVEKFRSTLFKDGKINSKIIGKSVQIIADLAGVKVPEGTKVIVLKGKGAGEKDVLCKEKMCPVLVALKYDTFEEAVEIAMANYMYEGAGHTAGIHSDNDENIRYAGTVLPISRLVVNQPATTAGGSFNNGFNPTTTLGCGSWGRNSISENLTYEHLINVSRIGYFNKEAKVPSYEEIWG
The data set can be described thus: X-ray crystal structure, […] Å. In kind it is binding.

For data set [4], the system named is CC(C)(COP(=O)(O)OP(=O)(O)OC[C@H]1O[C@@H](n2cnc3c(N)ncnc32)[C@H](O)[C@@H]1OP(=O)(O)O)[C@@H](O)C(=O)NCCC(=O)NCCSC(=O)CCCO. The data set can be described thus: purified protein. The conditions noted are these: 200 mM HEPES pH 7.5, 400 µM NADPH, 400 nM enzyme, 30 °C, apparent KM.
Substrate in data set [5]: C/C(=C\C(=O)SCCNC(=O)CCNC(=O)[C@H](O)C(C)(C)COP(=O)(O)OP(=O)(O)OC[C@H]1O[C@@H](n2cnc3c(N)ncnc32)[C@H](O)[C@@H]1OP(=O)(O)O)C(=O)O
Briefly: purified protein. The conditions noted are these: 200 mM HEPES pH 7.5, 400 µM NADPH, 400 nM enzyme, 30 °C, apparent KM.

Substrate in data set [6]: C/C=C/C(=O)SCCNC(=O)CCNC(=O)[C@H](O)C(C)(C)COP(=O)(O)OP(=O)(O)OC[C@H]1O[C@@H](n2cnc3c(N)ncnc32)[C@H](O)[C@@H]1OP(=O)(O)O
Briefly: purified protein. The conditions noted are these: 200 mM HEPES pH 7.5, 400 µM NADPH, 400 nM enzyme, 30 °C, apparent KM.

Substrate in data set [7]: CC(C)(COP(=O)(O)OP(=O)(O)OC[C@H]1O[C@@H](n2cnc3c(N)ncnc32)[C@H](O)[C@@H]1OP(=O)(O)O)[C@@H](O)C(=O)NCCC(=O)NCCSC(=O)CCC(=O)O
The data set can be described thus: purified protein. The conditions noted are these: 200 mM HEPES pH 7.5, 400 µM NADPH, 400 nM enzyme, 30 °C, apparent KM.

Substrate in data set [8]: C/C(=C\C(=O)O)C(=O)SCCNC(=O)CCNC(=O)[C@H](O)C(C)(C)COP(=O)(O)OP(=O)(O)OC[C@H]1O[C@@H](n2cnc3c(N)ncnc32)[C@H](O)[C@@H]1OP(=O)(O)O
Briefly: purified protein. As to conditions: 200 mM HEPES pH 7.5, 400 µM NADPH, 400 nM enzyme, 30 °C, apparent KM.

Substrate in data set [9]: CCC(=O)SCCNC(=O)CCNC(=O)[C@H](O)C(C)(C)COP(=O)(O)OP(=O)(O)OC[C@H]1O[C@@H](n2cnc3c(N)ncnc32)[C@H](O)[C@@H]1OP(=O)(O)O
Briefly: purified protein. As to conditions: 200 mM HEPES pH 7.5, 400 µM NADPH, 400 nM enzyme, 30 °C, apparent KM.

Data set [10] deals with the molecule itself. Briefly: crystal structure; X-ray structures of CkSucD without ligands (8CEI), with NADPH (8CEK) and with mesaconyl-C1-CoA (8CEJ); sitting-drop vapor diffusion at 288 K.
Substrate in data set [11]: CC(C)(COP(=O)(O)OP(=O)(O)OC[C@H]1O[C@@H](n2cnc3c(N)ncnc32)[C@H](O)[C@@H]1OP(=O)(O)O)[C@@H](O)C(=O)NCCC(=O)NCCSC(=O)CCC(=O)O
The data set can be described thus: purified protein. In kind it is biochemical, Clostridioides difficile. The conditions noted are these: 200 mM HEPES pH 7.5, 400 µM NADPH, 30 °C, apparent KM.

Substrate in data set [12]: C/C(=C\C(=O)O)C(=O)SCCNC(=O)CCNC(=O)[C@H](O)C(C)(C)COP(=O)(O)OP(=O)(O)OC[C@H]1O[C@@H](n2cnc3c(N)ncnc32)[C@H](O)[C@@H]1OP(=O)(O)O
The data set can be described thus: purified protein. In kind it is biochemical, Clostridioides difficile. The conditions noted are these: 200 mM HEPES pH 7.5, 400 µM NADPH, 30 °C, apparent KM.

Broadly, the Km is the substrate concentration at which the rate is half of its maximum. As a reminder, the kcat is the maximal rate divided by the concentration of active sites. For the molecule “CkSucD (Clostridium kluyveri DSM 555; K70R)”, in data set [1], the Km was determined as 86.1 ± 15.1 µM and the kcat is 0.1 ± 0.01 s⁻¹. For the same molecule, in [2], the Michaelis constant (Km) stood at 19.9 ± 2.3 µM and the kcat amounted to 0.9 ± 0.03 s⁻¹.
On to `C/C(=C\C(=O)O)C(=O)SCCNC(=O)CCNC(=O)[C@H](O)C(C)(C)COP(=O)(O)OP(=O)(O)OC[C@H]1O[C@@H](n2cnc3c(N)ncnc32)[C@H](O)[C@@H]1OP(=O)(O)O` [mesaconyl-C1-CoA], for which the “X-ray crystal structure, 2.1 Å” value in data set [3] (5 mM ligand, pH 7.5, active site, intact ligand in chain C, covalent mesaconyl-Cys242 in chains A, B, D) is given as “mesaconyl-C1 CoA bound state (pdb 8CEJ”.
In the case of `NC(=O)C1=CN([C@@H]2O[C@H](COP(=O)(O)OP(=O)(O)OC[C@H]3O[C@@H](n4cnc5c(N)ncnc54)[C@H](OP(=O)(O)O)[C@@H]3O)[C@@H](O)[C@H]2O)C=CC1` [NADPH], the “X-ray crystal structure, 2.1 Å” value in [3] (5 mM NADPH, pH 6.5 (abstract calls the ligand NADP+)) was 8CEK (with NADPH).
With CkSucD (Clostridium kluyveri DSM 555), in [4], the Km worked out at 48.9 ± 10.8 µM and the kcat worked out at 0.2 ± 0.01 s⁻¹.

B1: Succinyl-CoA reductase (SucD) from Clostridium kluyveri (enzyme)
chain: T3 sequence (P38947 1-453)
notes: Succinyl-CoA reductase (SucD) of Clostridium kluyveri, UniProt P38947; In PDB 8CEJ Cys242 carries a mesaconyl-cysteine intermediate in subunits A, B and D; also called CkSucD; source: E. coli BL21 DE3, purified (HisTrap FF, desalting, size exclusion chromatography on Superdex 200)
As a reminder, the stoichiometry N is a count of units in the complex or per binding partner. Regarding B1, the Km came to 25.7 ± 6.8 µM in data set [5]; 332.6 ± 54.8 µM in [6]; 22.6 ± 4.9 µM in data set [7]; 28.5 ± 4.7 µM in data set [8]; 145.2 ± 144 µM in data set [9]. Besides, the kcat in data set [5] was determined as 0.2 ± 0.02 s⁻¹; in data set [6], 0.3 ± 0.03 s⁻¹; in data set [7], 7.8 ± 0.43 s⁻¹; in data set [8], 1.6 ± 0.07 s⁻¹; in data set [9], 0.1 ± 0.04 s⁻¹. Also, in [10], the “stoichiometry N” value was 2.

B2: CdSucD (Clostridioides difficile R20291) (protein)
chain: MEKAVENFEDLSKEYINGYIERARKAQREFECYTQEQVDKIVKIVGKVVYYNAEYLAKLAVEETGMGVYEDKVAKNKSKAKVIYNNLKDKKSVGIIDIDRETGITKVAKPVGVVAAITPCTNPIVTPMSNAMFALKGRNAIIITPHHKAIGCSTKTVEMINEELEKIGAPENLIQILDQQSRENTRNLISSADVVIATGGMGMVKAAYSSGKPALGVGAGNVQCIIDRDVDIKEAVPKIIAGRIFDNGIICSGEQSVIVAEEMFDKIMDEFKNNKGFIVRDKVQKEAFRNAMFVNKSMNKDAVGQSVHTIAKIAGVEIPEDTKIIVIEADGPGEEDIIAKEKMCPVISAYKYKSFEEGVAIAKANLNVEGKGHSVSIHSNTVKNIEYAGENIEVSRFVINQCCATSAGGSFFNGLAPTNTLGCGSWGNNSISENLDYKHLINISRIAYYMPENEVPTDEELWG
notes: His-tagged, expressed in E. coli BL21(DE3), HisTrap purified
For B2, in data set [11], the Km worked out at 213.8 ± 49.4 µM and the catalytic constant (kcat) came to 28.7 ± 4.1 s⁻¹. Besides, in data set [12], the Km was found to be 38.3 ± 14.9 µM and the catalytic constant (kcat) turned out to be 0.65 ± 0.08 s⁻¹.

The values are drawn from PMC10249356 (Biochemistry, 2023).
